Data published in patent US20160097044A1, “Antimicrobial Enzyme Fusions Reduce Resistance and Kill Intracellular Staphylococcus aureus” (The United States of America, as Represented by the …, priority 2014, published 2016).

Legend:
[1] = test system: NRS 194; experiment: Minimum Inhibitory Concentration (MIC) assay; type: cell-based, S. aureus
Method: (§1) The Minimum Inhibitory Concentrations (MIC) of each protein for multiple S. aureus strains was determined as previously described (Jones et al. 1985. In: Manual of Clinical Microbiology, Eds. Balows et al. American Society of Microbiology, Washington D.C., pp. 972-977) with the following modifications. Enzymes were serially diluted two fold across a 96 well plate, such that after dilution, 50 μl of the enzyme solution in 300 mM NaCl, 50 mM NaH2PO4, 30% glycerol pH 7.5, remained in each well. To each well was added 50 μl of TSB and 100 μl of S. aureus Newman in TSB (diluted to 5×10^6 cells/ml). The plates were incubated 20 h at 37° C. and read with a 96 well plate reader. MIC determination values were reported as the median of ≧4 replicates (Table 1).

[2] = test system: USA 100 (NRS 382); experiment: Minimum Inhibitory Concentration (MIC) assay; type: cell-based, S. aureus
Method: as §1

[3] = test system: USA 300 (NRS 384); experiment: Minimum Inhibitory Concentration (MIC) assay; type: cell-based, S. aureus
Method: as §1

[4] = test system: Sanger 252 (NRS 71); experiment: Minimum Inhibitory Concentration (MIC) assay; type: cell-based, S. aureus
Method: as §1

[5] = test system: USA 400 (NRS 123); experiment: Minimum Inhibitory Concentration (MIC) assay; type: cell-based, S. aureus
Method: as §1

[6] = test system: USA 500 (NRS 385); experiment: Minimum Inhibitory Concentration (MIC) assay; type: cell-based, S. aureus
Method: as §1

[7] = test system: NRS 209; experiment: Minimum Inhibitory Concentration (MIC) assay; type: cell-based, S. aureus
Method: as §1

[8] = test system: NRS 271; experiment: Minimum Inhibitory Concentration (MIC) assay; type: cell-based, S. aureus
Method: as §1

[9] = test system: NRS 193; experiment: Minimum Inhibitory Concentration (MIC) assay; type: cell-based, S. aureus
Method: as §1

[10] = test system: NRS 192; experiment: Minimum Inhibitory Concentration (MIC) assay; type: cell-based, S. aureus
Method: as §1

[11] = test system: USA 200 (NRS 383); experiment: Minimum Inhibitory Concentration (MIC) assay; type: cell-based, S. aureus
Method: as §1

[12] = test system: USA 600 (NRS 22); experiment: Minimum Inhibitory Concentration (MIC) assay; type: cell-based, S. aureus
Method: as §1

[13] = test system: N315 (NRS 70); experiment: Minimum Inhibitory Concentration (MIC) assay; type: cell-based, S. aureus
Method: as §1

[14] = test system: S. aureus strain Newman; type: cell-based; conditions: tenth round compared to first exposure
Method: For the MIC repeated exposure method, MIC determinations were performed with S. aureus strain Newman. 100 μl of S. aureus strain Newman culture that survived at ½ the MIC (the first well with visible growth) for each round was inoculated into 5 ml TSB and cultivated to mid-log phase growth. This culture was used as the inoculum for the next round of MIC exposure (overnight growth), and the cycle was repeated for 10 rounds.
Development of resistance to the triple-acting fusion enzymes was tested on S. aureus strain Newman and compared to both parental enzymes applied individually or simultaneously. […] Survivors of the ten round exposure to peptidoglycan hydrolase were passaged five times in medium with no peptidoglycan hydrolase added. […] We compared our triple-acting fusions to small molecule antibiotics in similar assays.

[15] = test system: S. xylosus MP05; experiment: Minimum Inhibitory Concentration (MIC) assay; type: cell-based, Staphylococcus xylosus; conditions: Mastitis isolate S. xylosus MP05
[16] = test system: S. aureus SA113 biofilms; experiment: Static biofilm reduction model; type: cell-based; conditions: 1 h treatment, compared to buffer treated biofilms
Method: S. aureus SA113 biofilms were treated for 1 h with 100 μl of each enzyme individually or as equimolar mixtures of LysK and lysostaphin (white bars) in 300 mM NaCl, 50 mM NaH2PO4, 30% glycerol. Constructs are named as in FIG. 1a. Results are reported as the percentage reduction in biofilm compared to buffer treated biofilms. Data presented represents 4 replicates. Values represent means±[…]. Asterisks indicate significant differences (single factor ANOVA with t-test post hoc analysis Sidák correction) as compared to LysK (K) at that concentration. Adjusted alpha p<0.026. Peptidoglycan hydrolase constructs: lysostaphin (L), LysK (K), triple fusion K-L, and triple fusion (L-K), as named in FIG. 1a.
In the static biofilm reduction model, biofilms were produced as previously described (Gross et al. 2001. Infect. Immun. 69:3423-3426) with the following modifications. S. aureus strains were grown overnight in 5 ml TSB supplemented with 0.25% D(+)-glucose without shaking at 37° C. The culture was diluted 1/200 in fresh culture medium, and 200 μl was added to each well of a 96 well microtiter plate and incubated without shaking for 24 h at 37° C. Biofilms in the wells were washed twice with 200 μl SLB, treated with […] peptidoglycan hydrolase (Lysostaphin, LysK and the triple fusion proteins K-L and L-K) in SLB at concentrations indicated (FIG. 4) for 1 h at room temperature, and washed twice with 100 μl SLB. Adherent bacteria were fixed with 200 μl 95% ethanol-5% glacial acetic acid for 20 min, washed once with water, and stained with 100 μl 0.4% crystal violet for 15 min at room temperature. Excess stain was removed with 3 water washes. Bound stain was resolubilized in 33% acetic acid, and 20 μl was transferred to a 96 well plate containing 180 μl water. The OD590nm was determined in a Spectra Max plate reader. Percent reduction represents the difference in absorbance between biofilms exposed to buffer only and experimental wells that were exposed to the peptidoglycan hydrolases.
Static biofilms were created with S. aureus strain SA113 in 96 well dishes and treated for one hour with 100 μl of the indicated concentrations of each enzyme individually or as an equimolar mixture of LysK and lysostaphin.

[17] = test system: S. aureus Newman; experiment: Minimum Inhibitory Concentration (MIC) assay; type: cell-based
Method: as §1

[18] = test system: S. aureus Newbould 305; experiment: Minimum Inhibitory Concentration (MIC) assay; type: cell-based; conditions: Mastitis isolate S. aureus Newbould 305
Method: as §1

[19] = test system: S. aureus ALR; experiment: Minimum Inhibitory Concentration (MIC) assay; type: cell-based
Method: as §1

[20] = test system: S. epidermidis MP04; experiment: Minimum Inhibitory Concentration (MIC) assay; type: cell-based, Staphylococcus epidermidis; conditions: Mastitis isolate S. epidermidis MP04
[21] = test system: S. simulans MP03; experiment: Minimum Inhibitory Concentration (MIC) assay; type: cell-based, Staphylococcus simulans; conditions: Mastitis isolate S. simulans MP03

B1: L-K: LysK lytic domains inserted between lysostaphin's M23 endopeptidase domain and SH3b cell wall binding domain; SEQ ID NO:7, protein SEQ ID NO:8 (protein)
chain: MAATHEHSAQWLNNYKKGYGYGPYPLGINGGMHYGVDFFMNIGTPVKAISSGKIVEAGWSNYGGGNQIGLIENDGVHRQWYMHLSKYNVKVGDYVKAGQIIGWSGSTGYSTAPHLHFQRMVNSFSNSTAQDPMPFLKSAGYGKAGGTVTPTPNTGLDAKTQAEINKRLDAYAKGTVDSPYRVKKATSYDPSFGVMEAGAIDADGYYHAQCQDLITDYVLWLTDNKVRTWGNAKDQIKQSYGTGFKIHENKPSTVPKKGWIAVFTSGSYEQWGHIGIVYDGGNTSTFTILEQNWNGYANKKPTKRVDNYYGLTHFIEIPVKAGTTVKKETAKKSASKTPAPKKKATLKVSKNHINYTMDKRGKKPEGMVIHNDAGRSSGQQYENSLANAGYARYANGIAHYYGSEGYVWEAIDAKNQIAWHTGDGTGANSGNFRFAGIEVCQSMSASDAQFLKNEQAVFQFTAEKFKEWGLTPNRKTVRLHMEFVPTACPHRSMVLHTGFNPVTQGRPSQAIMNKLKDYFIKQIKNYMDKGTSSSTVVKDGKTSSASLDTVTPTPNTGWKTNKYGTLYKSESASFTPNTDIITRTTGPFRSMPQSGVLKAGQTIHYDEVMKQDGHVWVGYTGNSGQRIYLPVRTWNKSTNTLGVLWGTIKLEHHHHHH
modifications: Staphylococcus simulans & Phage K
Minimum Inhibitory Conc. (median μg/ml) [1]: 12 µg/mL
Minimum Inhibitory Conc. (median μg/ml) [2]: 20 µg/mL
Minimum Inhibitory Conc. (median μg/ml) [3]: 20 µg/mL
Minimum Inhibitory Conc. (median μg/ml) [4]: 6.8 µg/mL
Minimum Inhibitory Conc. (median μg/ml) [5]: 16 µg/mL
Minimum Inhibitory Conc. (median μg/ml) [6]: 12 µg/mL
Minimum Inhibitory Conc. (median μg/ml) [7]: 12 µg/mL
Minimum Inhibitory Conc. (median μg/ml) [8]: 9.8 µg/mL
Minimum Inhibitory Conc. (median μg/ml) [9]: 12 µg/mL
Minimum Inhibitory Conc. (median μg/ml) [10]: 16 µg/mL
Minimum Inhibitory Conc. (median μg/ml) [11]: 5.9 µg/mL
Minimum Inhibitory Conc. (median μg/ml) [12]: 6.8 µg/mL
Minimum Inhibitory Conc. (median μg/ml) [13]: 16 µg/mL
increase in MIC after 10 rounds of sub-lethal exposure [14]: 2 fold
Minimum Inhibitory Conc. (median μg/ml) [15]: 4.0 µg/mL
static biofilm reduction (in words) [16]: effectively reduced staphylococcal biofilms
Minimum Inhibitory Conc. (median μg/ml) ([17]; S. aureus Newman): 7.8 µg/mL
First exposure MIC ([17]; first exposure of the resistance development experiment, FIG. 1b): 7.8 µg/mL
First exposure MIC ([17]; first exposure, molar concentration in brackets): 0.107 µM
Minimum Inhibitory Conc. (median μg/ml) [18]: 12 µg/mL
MIC for S. aureus ALR (comparison for post-treatment isolates) ([19]; N=8, value ± spread): 9.4 ± 6.1 µg/mL
Minimum Inhibitory Conc. (median μg/ml) ([19]; S. aureus ALR): 4.4 µg/mL
Minimum Inhibitory Conc. (median μg/ml) [20]: 4.2 µg/mL
Minimum Inhibitory Conc. (median μg/ml) [21]: 5.9 µg/mL
